Target: T1, human CD73 on cells (human, UniProt P21589 27-549)
T1 sequence (looked up): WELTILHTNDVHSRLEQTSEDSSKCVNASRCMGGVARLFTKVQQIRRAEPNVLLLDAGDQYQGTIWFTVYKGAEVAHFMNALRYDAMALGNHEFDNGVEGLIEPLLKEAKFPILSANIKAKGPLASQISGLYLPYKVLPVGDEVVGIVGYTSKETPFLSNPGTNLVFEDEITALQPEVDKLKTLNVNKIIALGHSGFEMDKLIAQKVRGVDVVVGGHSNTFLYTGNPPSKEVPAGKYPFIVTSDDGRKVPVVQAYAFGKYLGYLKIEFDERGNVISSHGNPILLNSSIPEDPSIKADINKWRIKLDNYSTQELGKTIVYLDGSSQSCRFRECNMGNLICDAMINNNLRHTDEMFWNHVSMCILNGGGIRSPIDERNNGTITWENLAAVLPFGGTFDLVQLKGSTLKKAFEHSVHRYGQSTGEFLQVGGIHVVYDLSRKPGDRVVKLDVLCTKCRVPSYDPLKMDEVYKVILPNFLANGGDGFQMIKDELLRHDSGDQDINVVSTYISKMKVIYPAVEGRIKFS
Assay: cell-based or functional assay

Row | Binder | internalization T1/2, Calu6 [min] | internalization T1/2, NCI-H292 [min] | internalization Ymax, Calu6 [%] | internalization Ymax, NCI-H292 [%]
1 | CD73.4-IgG2.5G1-KH (antibody, also called mAb-CD73.4-IgG2.5G1-KH; CD73.4-Vh-hHC-IgG2.5G1-KH) heavy: QVQLVESGGGVVQPGRSLRLSCAASGFTFSNYGMHWVRQAPGKGLEWVAVILYDGSNKYYPDSVKGRFTISRDNSKNTLYLQMNSLRAEDTAVYYCARGGSSWYPDSFDIWGQGTMVTVSSASTKGPSVFPLAPSSRSTSESTAALGCLVKDYFPEPVTVSWNSGALTSGVHTFPAVLQSSGLYSLSSVVTVPSSNFGTQTYTCNVDHKPSNTKVDKTVERKCCVECPPCPAPPVAGPSVFLFPPKPKDTLMISRTPEVTCVVVDVSHEDPEVKFNWYVDGVEVHNAKTKPREEQYNSTYRVVSVLTVLHQDWLNGKEYKCKVSNKALPAPIEKTISKAKGQPREPQVYTLPPSREEMTKNQVSLTCLVKGFYPSDIAVEWESNGQPENNYKTTPPVLDSDGSFFLYSKLTVDKSRWQQGNVFSCSVMHEALHNHYTQKSLSLSPGK light: not shown | 17 | 15.4 | 76 | 90.8
2 | CD73.4-IgG2.5 (antibody, also called mAb-CD73.4-IgG2.5; CD73.4-Vh-hHC-IgG2.5) heavy: QVQLVESGGGVVQPGRSLRLSCAASGFTFSNYGMHWVRQAPGKGLEWVAVILYDGSNKYYPDSVKGRFTISRDNSKNTLYLQMNSLRAEDTAVYYCARGGSSWYPDSFDIWGQGTMVTVSSASTKGPSVFPLAPSSRSTSESTAALGCLVKDYFPEPVTVSWNSGALTSGVHTFPAVLQSSGLYSLSSVVTVPSSNFGTQTYTCNVDHKPSNTKVDKTVERKCCVECPPCPAPPVAGPSVFLFPPKPKDTLMISRTPEVTCVVVDVSHEDPEVQFNWYVDGVEVHNAKTKPREEQFNSTFRVVSVLTVVHQDWLNGKEYKCKVSNKGLPAPIEKTISKTKGQPREPQVYTLPPSREEMTKNQVSLTCLVKGFYPSDIAVEWESNGQPENNYKTTPPMLDSDGSFFLYSKLTVDKSRWQQGNVFSCSVMHEALHNHYTQKSLSLSPGK light: not shown | 20.9 | 18.3 | 79 | 89.6
3 | CD73.4-IgG2.3G1-KH (antibody, also called mAb-CD73.4-IgG2.3G1-KH; CD73.4-Vh-hHC-IgG2.3G1-KH) heavy: QVQLVESGGGVVQPGRSLRLSCAASGFTFSNYGMHWVRQAPGKGLEWVAVILYDGSNKYYPDSVKGRFTISRDNSKNTLYLQMNSLRAEDTAVYYCARGGSSWYPDSFDIWGQGTMVTVSSASTKGPSVFPLAPCSRSTSESTAALGCLVKDYFPEPVTVSWNSGALTSGVHTFPAVLQSSGLYSLSSVVTVPSSNFGTQTYTCNVDHKPSNTKVDKTVERKSCVECPPCPAPPVAGPSVFLFPPKPKDTLMISRTPEVTCVVVDVSHEDPEVKFNWYVDGVEVHNAKTKPREEQYNSTYRVVSVLTVLHQDWLNGKEYKCKVSNKALPAPIEKTISKAKGQPREPQVYTLPPSREEMTKNQVSLTCLVKGFYPSDIAVEWESNGQPENNYKTTPPVLDSDGSFFLYSKLTVDKSRWQQGNVFSCSVMHEALHNHYTQKSLSLSPGK light: not shown | 23.8 | 16.8 | 81.6 | 91.6
4 | CD73.4-IgG2.5G1.1f-KH (antibody, also called mAb-CD73.4-IgG2.5G1.1f-KH; CD73.4-Vh-hHC-IgG2.5G1.1f-KH) heavy: QVQLVESGGGVVQPGRSLRLSCAASGFTFSNYGMHWVRQAPGKGLEWVAVILYDGSNKYYPDSVKGRFTISRDNSKNTLYLQMNSLRAEDTAVYYCARGGSSWYPDSFDIWGQGTMVTVSSASTKGPSVFPLAPSSRSTSESTAALGCLVKDYFPEPVTVSWNSGALTSGVHTFPAVLQSSGLYSLSSVVTVPSSNFGTQTYTCNVDHKPSNTKVDKTVERKCCVECPPCPAPPVAGPSVFLFPPKPKDTLMISRTPEVTCVVVDVSHEDPEVKFNWYVDGVEVHNAKTKPREEQYNSTYRVVSVLTVLHQDWLNGKEYKCKVSNKALPSSIEKTISKAKGQPREPQVYTLPPSREEMTKNQVSLTCLVKGFYPSDIAVEWESNGQPENNYKTTPPVLDSDGSFFLYSKLTVDKSRWQQGNVFSCSVMHEALHNHYTQKSLSLSPGK light: not shown | 21.2 | 18 | 79.6 | 90.9
5 | CD73.4-IgG2.3-plusTHT (antibody, also called mAb-CD73.4-IgG2.3-plusTHT; CD73.4-Vh-hHC-IgG2.3-plusTHT) heavy: QVQLVESGGGVVQPGRSLRLSCAASGFTFSNYGMHWVRQAPGKGLEWVAVILYDGSNKYYPDSVKGRFTISRDNSKNTLYLQMNSLRAEDTAVYYCARGGSSWYPDSFDIWGQGTMVTVSSASTKGPSVFPLAPCSRSTSESTAALGCLVKDYFPEPVTVSWNSGALTSGVHTFPAVLQSSGLYSLSSVVTVPSSNFGTQTYTCNVDHKPSNTKVDKTVERKSCVETHTCPPCPAPPVAGPSVFLFPPKPKDTLMISRTPEVTCVVVDVSHEDPEVQFNWYVDGVEVHNAKTKPREEQFNSTFRVVSVLTVVHQDWLNGKEYKCKVSNKGLPAPIEKTISKTKGQPREPQVYTLPPSREEMTKNQVSLTCLVKGFYPSDIAVEWESNGQPENNYKTTPPMLDSDGSFFLYSKLTVDKSRWQQGNVFSCSVMHEALHNHYTQKSLSLSPGK light: not shown | 21.3 | 17.6 | 81.2 | 91.4
6 | CD73.4-IgG2.3-plusGGG (antibody, also called mAb-CD73.4-IgG2.3-plusGGG; CD73.4-Vh-hHC-IgG2.3-plusGGG) heavy: QVQLVESGGGVVQPGRSLRLSCAASGFTFSNYGMHWVRQAPGKGLEWVAVILYDGSNKYYPDSVKGRFTISRDNSKNTLYLQMNSLRAEDTAVYYCARGGSSWYPDSFDIWGQGTMVTVSSASTKGPSVFPLAPCSRSTSESTAALGCLVKDYFPEPVTVSWNSGALTSGVHTFPAVLQSSGLYSLSSVVTVPSSNFGTQTYTCNVDHKPSNTKVDKTVERKSCVEGGGCPPCPAPPVAGPSVFLFPPKPKDTLMISRTPEVTCVVVDVSHEDPEVQFNWYVDGVEVHNAKTKPREEQFNSTFRVVSVLTVVHQDWLNGKEYKCKVSNKGLPAPIEKTISKTKGQPREPQVYTLPPSREEMTKNQVSLTCLVKGFYPSDIAVEWESNGQPENNYKTTPPMLDSDGSFFLYSKLTVDKSRWQQGNVFSCSVMHEALHNHYTQKSLSLSPGK light: not shown | 20.1 | 16.3 | 81.7 | 91.6
7 | CD73.4-IgG2.5-plusTHT (antibody, also called mAb-CD73.4-IgG2.5plusTHT/LC; CD73.4-Vh-hHC-IgG2.5plusTHT/LC) heavy: QVQLVESGGGVVQPGRSLRLSCAASGFTFSNYGMHWVRQAPGKGLEWVAVILYDGSNKYYPDSVKGRFTISRDNSKNTLYLQMNSLRAEDTAVYYCARGGSSWYPDSFDIWGQGTMVTVSSASTKGPSVFPLAPSSRSTSESTAALGCLVKDYFPEPVTVSWNSGALTSGVHTFPAVLQSSGLYSLSSVVTVPSSNFGTQTYTCNVDHKPSNTKVDKTVERKCCVETHTCPPCPAPPVAGPSVFLFPPKPKDTLMISRTPEVTCVVVDVSHEDPEVQFNWYVDGVEVHNAKTKPREEQFNSTFRVVSVLTVVHQDWLNGKEYKCKVSNKGLPAPIEKTISKTKGQPREPQVYTLPPSREEMTKNQVSLTCLVKGFYPSDIAVEWESNGQPENNYKTTPPMLDSDGSFFLYSKLTVDKSRWQQGNVFSCSVMHEALHNHYTQKSLSLSPGK light: not shown | 17.2 | 15.4 | 80.2 | 89.6

Target: T2, hCD73-his (human, UniProt P21589 26-546)
T2 construct: range 26-546; also called full length extracellular domain of human-CD73
T2 sequence (looked up): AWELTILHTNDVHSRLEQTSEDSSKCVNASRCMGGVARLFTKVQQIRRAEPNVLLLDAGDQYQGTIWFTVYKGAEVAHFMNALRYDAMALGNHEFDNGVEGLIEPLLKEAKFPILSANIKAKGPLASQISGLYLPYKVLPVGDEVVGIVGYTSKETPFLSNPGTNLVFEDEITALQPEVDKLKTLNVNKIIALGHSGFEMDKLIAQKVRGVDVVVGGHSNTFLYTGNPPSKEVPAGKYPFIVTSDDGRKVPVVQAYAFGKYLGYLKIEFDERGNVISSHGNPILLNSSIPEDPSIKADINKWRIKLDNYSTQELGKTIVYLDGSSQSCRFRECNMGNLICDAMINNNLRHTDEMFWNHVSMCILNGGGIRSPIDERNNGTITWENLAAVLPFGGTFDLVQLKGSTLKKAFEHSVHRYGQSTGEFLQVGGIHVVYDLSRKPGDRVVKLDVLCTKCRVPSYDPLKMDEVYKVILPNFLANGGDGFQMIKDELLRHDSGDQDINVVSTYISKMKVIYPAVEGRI
Assay: SEC of equimolar mAb + hCD73-his
Procedure: The oligomeric state of CD73/antibody complexes were examined by size-exclusion chromatography coupled to an in-line multi-angle light scattering detector (SEC-MALS). Isocratic separations were performed on a Shodex PROTEIN KW-803 column connected to an Prominence Shimadzu UFLC in buffer containing 200 mM K₂HPO₄, 150 mM NaCl, pH 6.8, containing 0.02% Na azide (0.1 μm filtered) running at 0.5 mL/min. Samples were injected onto the column using a SIL-20AC Prominence Shimadzu® autosampler, and data were obtained from three online detectors connected in series: a Prominence SPD-20AD diode array UV/vis spectrophotometer followed by a Wyatt miniDAWN™ TREOS Multi-Angle Light Scattering Detector then a Wyatt Optilab T-rEX Refractive Index Detector® instrument. Data were collected and analyzed using Astra® (Wyatt) and Labsolutions® (Shimadzu) software.
CD73.4 antibodies having the heavy chain constant regions set forth in Table 14 were also tested for formation of high molecular weight complexes by SEC-MALS and DLS experiments, as described in Example 3.

Row | Binder | UV % Peak1 (<12.9 min) [%] | UV % Peak4 (16.7-19.3 min) [%] | UV % Peak5 (>19.3 min) [%]
8 | CD73.4-IgG2.3-plusTHT (antibody, also called mAb-CD73.4-IgG2.3-plusTHT; CD73.4-Vh-hHC-IgG2.3-plusTHT) heavy: QVQLVESGGGVVQPGRSLRLSCAASGFTFSNYGMHWVRQAPGKGLEWVAVILYDGSNKYYPDSVKGRFTISRDNSKNTLYLQMNSLRAEDTAVYYCARGGSSWYPDSFDIWGQGTMVTVSSASTKGPSVFPLAPCSRSTSESTAALGCLVKDYFPEPVTVSWNSGALTSGVHTFPAVLQSSGLYSLSSVVTVPSSNFGTQTYTCNVDHKPSNTKVDKTVERKSCVETHTCPPCPAPPVAGPSVFLFPPKPKDTLMISRTPEVTCVVVDVSHEDPEVQFNWYVDGVEVHNAKTKPREEQFNSTFRVVSVLTVVHQDWLNGKEYKCKVSNKGLPAPIEKTISKTKGQPREPQVYTLPPSREEMTKNQVSLTCLVKGFYPSDIAVEWESNGQPENNYKTTPPMLDSDGSFFLYSKLTVDKSRWQQGNVFSCSVMHEALHNHYTQKSLSLSPGK light: not shown | 30.6 | 33.7 | 3.2
